Source: the supplement of paper PMC10126150
± gives the standard deviation of the averaged measurements.

Test system: ATP
Experiment: switch fluorescence ratio, 500 uM ATP over buffer (Cy3 cluster intensity, sum of 5 cycles each) (fold (ratio)); higher = stronger signal-on switching upon ATP binding; sequences stand for … in TCGTCGGCAGCGTCAGATGTGTATAAGAGACAGTTTTTTTTTTTTTTTTTTTTTTTTT…TC
Conditions: aptamer strand: ATP DNA aptamer (quencher-CACCTGGGGGAGTATTGCGGAGGAAGG + anchor), 100 nM annealed; ATP concentration: 500 uM
Outline: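 For every switch-domain sequence, the fluorescence ratio is the mean of per-cluster values, each being summed target-cycle Cy3 intensity over summed buffer-cycle Cy3 intensity. Clusters outside 100-1000 RFU were excluded. On a modified Illumina MiSeq flow-cell, the Cy3-labelled switching-strand clusters were annealed to 100 nM quencher-labelled ATP aptamer, imaged in selection buffer and then after 15 min with 500 uM ATP at 22 °C. Five such cycles were run, with NaOH stripping and re-annealing between them.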
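Further: ATP exposure 15 min at 22 °C before imaging.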

Row | Sequence | switch fluorescence ratio
1 | ATGTTCTCAA | 0.998 ± 0.01
2 | AAATGGTTCC | 1.72 ± 1
3 | AATCTCATAG | 1.01 ± 0.012
4 | TTTAGCTGCC | 1.16 ± 0.064
5 | AAAAGGGGTC | 0.9959 ± 0.0053
6 | TTTTAATCCA | 1.01 ± 0.033
7 | CGGGGTCCTG | 1.03 ± 0.054
8 | CGGATCGACT | 0.977 ± 0.02
9 | AGGTAGATAG | 0.948 ± 0.0068
10 | GGGACTTACC | 1.08 ± 0.02
11 | GCGGGGA | 0.998 ± 0.015
12 | GTTACCGGAC | 1.5 ± 0.034
13 | CAAGAATCTG | 0.9606 ± 0.0091
14 | TCCGCGGGGA | 1.52 ± 0.59
15 | GGCAACGAAA | 1.039 ± 0.0099
16 | GGGTCTTGTA | 0.99 ± 0.016
17 | GTGATTGAGT | 0.9707 ± 0.0089
18 | TGCTCATAGC | 1.01 ± 0.021
19 | ATGAGACGTG | 1.04 ± 0.037
20 | ACTATGAAAA | 1.037 ± 0.0011
21 | TAGAGTTAAG | 0.9747 ± 0.0046
22 | TGTTGTCGGT | 0.988 ± 0.063
23 | TATGTCGCCA | 1.01 ± 0.024
24 | AGGGTTGTGT | 1.02 ± 0.029
25 | TAAGATGAGA | 0.936 ± 0.0097

Row | Sequence | switch fluorescence ratio
26 | GGGGGATCGA | 1.04 ± 0.086
27 | CGGTGATATT | 1.03 ± 0.052
28 | ACTCATGATG | 0.99 ± 0.024
29 | TTTTTTAGGG | 0.988 ± 0.029
30 | CGTTGCGGGG | 0.9751 ± 0.0073
31 | ATTCCTCAGC | 2.39 ± 0.49
32 | GAGTGTTTTG | 0.9957 ± 0.008
33 | TGGGTACGCT | 1.01 ± 0.022
34 | GAGGTTATAC | 1.38 ± 0.042
35 | ATAAGCGTTC | 1.04 ± 0.0013
36 | GGGTCGGTTT | 1.01 ± 0.019
37 | CGCCTGGGGT | 1.64 ± 0.92
38 | CAGAAATATT | 1.01 ± 0.075
39 | GCTGGGGGTG | 1.01 ± 0.012
40 | TATTTGATTG | 1.001 ± 0.0041
41 | GGTATGTTTG | 0.96 ± 0.043
42 | CGATGGGTAA | 1 ± 0.033
43 | CGTAGGATGT | 1.02 ± 0.044
44 | TAGGGTAGGT | 0.974 ± 0.0049
45 | TGCGCAGCGG | 1.005 ± 0.0094
46 | ACTTGTTTGC | 1.03 ± 0.035
47 | TTGTTGGAAT | 1 ± 0.019
48 | TGAGGGGATC | 1.02 ± 0.015
49 | TGGGAAAAAT | 0.994 ± 0.04
50 | GGGTTCAGGG | 0.977 ± 0.02

Row | Sequence | switch fluorescence ratio
51 | CGGTCACTG | 1.002 ± 0.0069
52 | GTGAGGGGTT | 0.971 ± 0.044
53 | ATATGTGGAG | 0.987 ± 0.011
54 | ATCTGGGGTA | 0.972 ± 0.034
55 | TGGCGCATAA | 1.25 ± 0.059
56 | GTGGGGACGG | 0.977 ± 0.053
57 | ATGTACTTGG | 1.02 ± 0.013
58 | GTTGGATCCG | 0.984 ± 0.017
59 | GGGGGTATGC | 1.05 ± 0.15
60 | CACATTGTCC | 0.9773 ± 0.0025
61 | TTTATTACTT | 1 ± 0.029
62 | TGAGGGATGG | 1.01 ± 0.017
63 | TGAGCAGCGG | 1.01 ± 0.044
64 | CGTAGGGGTA | 1.11 ± 0.32
65 | TGCTAGGAG | 0.995 ± 0.043
66 | TATTTGGTTG | 0.995 ± 0.018
67 | GTCCTTTCTG | 0.988 ± 0.014
68 | CGTGGTTAGT | 0.964 ± 0.023
69 | TTGTAAAATG | 0.996 ± 0.013
70 | GAGGCAGGGG | 1.04 ± 0.072
71 | GGTAGGTGGC | 0.952 ± 0.027
72 | GGGGGGCGCG | 1.01 ± 0.025
73 | TTGATATGAC | 1.014 ± 0.0094
74 | ACACAGGGTC | 1.07 ± 0.011
75 | GCATCAATTT | 1.016 ± 0.0012

Row | Sequence | switch fluorescence ratio
76 | ACATCATAAA | 0.988 ± 0.023
77 | GCATAAACGC | 1.06 ± 0.044
78 | ACATTCGTCC | 1.37 ± 0.063
79 | TATGGTTG | 0.99 ± 0.057
80 | GGCGAGTATG | 0.9522 ± 0.0037
81 | GGAGTTAGGC | 1 ± 0.04
82 | AAGTTTTCGC | 0.9789 ± 0.0067
83 | GGGCTAAAAG | 0.97428 ± 3.4e-05
84 | TAGTAAAGAT | 1 ± 0.017
85 | CTCGGCGCTT | 1.05 ± 0.02
86 | GGTTTTAATG | 0.988 ± 0.031
87 | ACCTAGCGCA | 1.33 ± 0.045
88 | TTTTTCCAT | 1 ± 0.02
89 | TTTATTATAT | 1.01 ± 0.031
90 | ATTTTTTCGT | 1.04 ± 0.036
91 | TTATGGGAGT | 0.966 ± 0.026
92 | TTTATAGGAA | 1.02 ± 0.03
93 | TGACAAAGA | 1 ± 0.022
94 | CGGTACAAGT | 1 ± 0.032
95 | GATAGGATAG | 0.991 ± 0.019
96 | TAAATGGCGT | 1.01 ± 0.033
97 | AGGAGGACGT | 0.964 ± 0.06
98 | AGTTAGGAAG | 0.973 ± 0.011
99 | GAGGTCGAAA | 0.98 ± 0.013
100 | ATGGGTCCTG | 0.979 ± 0.048

Row | Sequence | switch fluorescence ratio
101 | GATCAAAGGG | 1.01 ± 0.021
102 | ATTTGAACAG | 0.978 ± 0.015
103 | GTAGCCCGGG | 0.993 ± 0.026
104 | ATAGGGATGG | 0.9829 ± 0.0035
105 | CAGGGTGTTG | 0.964 ± 0.041
106 | AAGTGAAACA | 1.03 ± 0.037
107 | ATCCCAGGTA | 2.009 ± 0.0073
108 | TTTTTTAGGA | 1.01 ± 0.019
109 | TTTTGAAGTT | 1 ± 0.039
110 | TACCGGGGTA | 1.01 ± 0.03
111 | TTCATGTGGA | 1.017 ± 0.0047
112 | TAGGGCAGGG | 1 ± 0.0022
113 | CTATCCTATA | 0.988 ± 0.022
114 | ACAGCTGGCG | 1.05 ± 0.024
115 | ACTGATTTTG | 1.01 ± 0.029
116 | TGTGATTTTC | 1.01 ± 0.016
117 | GGTATCTTAG | 0.9857 ± 0.0087
118 | TGCTTTCTTC | 1.15 ± 0.31
119 | CACTCTAGGC | 1.07 ± 0.02
120 | TTTTATGTCA | 1.03 ± 0.051
121 | AGATGTAGGC | 1.03 ± 0.038
122 | CGCCCGTTGT | 1.01 ± 0.013
123 | TTTTATAATG | 1.038 ± 0.0011
124 | AGCACGCTTT | 1.019 ± 0.0063
125 | GCCTGTGGGA | 1.01 ± 0.035

Row | Sequence | switch fluorescence ratio
126 | TTGGGGTAAT | 1.01 ± 0.022
127 | CGTTTATTCA | 1.036 ± 0.0079
128 | ATTTTCTTGC | 1 ± 0.038
129 | GGCGCCGTTG | 0.978 ± 0.019
130 | TAGGTGGCGT | 1.006 ± 0.0028
131 | CCGGGAACGC | 1.29 ± 0.024
132 | TCGTCAGGTG | 2.48 ± 0.084
133 | ACAGGGGTAT | 1.02 ± 0.066
134 | CATGCATATT | 1.01 ± 0.044
135 | TTGGGCGCGG | 1 ± 0.031
136 | ATGAATATGC | 1.04 ± 0.043
137 | GGGCAGATGG | 0.988 ± 0.034
138 | TTATGGGTTG | 1.002 ± 0.0039
139 | CGGTAGGTGG | 1.01 ± 0.057
140 | GCTATTGAAA | 0.9922 ± 0.0018
141 | GGGGTGCGCG | 0.968 ± 0.025
142 | TGCGGGGGCG | 0.992 ± 0.038
143 | GGGAATGCTA | 0.9999 ± 0.0068
144 | CTGGTTGGGT | 1.01 ± 0.027
145 | TTAGAAGGTT | 1 ± 0.026
146 | GGGGGTTTAC | 1.01 ± 0.013
147 | AACGCCATGC | 2.68 ± 0.38
148 | GAAGGGCATA | 1.02 ± 0.019
149 | GAGGGGCGAC | 0.974 ± 0.032
150 | CGTGCTCAGG | 1.162 ± 0.011

Row | Sequence | switch fluorescence ratio
151 | CCGTTTCGTG | 0.9948 ± 0.0046
152 | ATATCGGTGT | 0.991 ± 0.029
153 | AGTTATTGCC | 1.01 ± 0.029
154 | GATCAAGGGA | 1.03 ± 0.052
155 | AGGGTAGTTG | 0.994 ± 0.019
156 | ATGTTGTGCT | 0.984 ± 0.045
157 | TTTCCCTGTT | 1.05 ± 0.076
158 | TATAGGCCGG | 0.991 ± 0.02
159 | TGCTTGAGTC | 1.009 ± 0.0027
160 | TCAAGTATCA | 1.02 ± 0.02
161 | GTTTTAATTT | 0.988 ± 0.019
162 | TAGAAGCCTG | 1.03 ± 0.053
163 | CGATGTGTGG | 0.986 ± 0.015
164 | GTGGGTGGTG | 1.015 ± 0.0046
165 | CAGGGGGCTA | 1.01 ± 0.067
166 | GGGGACGAAA | 0.997 ± 0.013
167 | TGGTCTCTAA | 0.98 ± 0.01
168 | ATGTTGTATT | 1.01 ± 0.052
169 | TCGACTCAGG | 1.05 ± 0.028
170 | ATTTAGGGGG | 0.966 ± 0.02
171 | GATGGCCACG | 0.9881 ± 0.0047
172 | GGGTTGTCAA | 0.975 ± 0.0099
173 | CACAACGGTG | 1.04 ± 0.033
174 | GAATGGGTGA | 0.983 ± 0.028
175 | AGATAGCAGT | 1.019 ± 0.0016

Row | Sequence | switch fluorescence ratio
176 | CTCCTAGTTT | 1.03 ± 0.02
177 | GTAAAGGGCG | 0.973 ± 0.021
178 | ATGCATTATG | 1.02 ± 0.016
179 | GCATAAAACT | 1.04 ± 0.014
180 | CCAATCTGAC | 1.3 ± 0.14
181 | TCGATCGGGT | 0.991 ± 0.035
182 | TTGGTATTAT | 0.986 ± 0.02
183 | CGGCTGGCGG | 0.997 ± 0.026
184 | CTATGGGGGT | 0.997 ± 0.024
185 | CTGTAAGTGG | 0.989 ± 0.017
186 | CCCTGTAGGA | 1.04 ± 0.088
187 | GTAAGGAGAG | 1.02 ± 0.017
188 | TCGGGGAATA | 1.02 ± 0.014
189 | ATTGAGTGTG | 0.979 ± 0.022
190 | CAAGGTTATA | 1 ± 0.022
191 | TGAATTATGT | 0.985 ± 0.048
192 | AGTGCAGGCA | 1 ± 0.034
193 | ATACGCGGGC | 1.27 ± 0.038
194 | CGAAATTTGG | 1.03 ± 0.044
195 | TAAGACATTT | 1.03 ± 0.04
196 | GACTGGGACT | 1.08 ± 0.05
197 | ATGGTTAAAG | 0.996 ± 0.026
198 | TAATGGTGTG | 1 ± 0.022
199 | GTTGGGGAAA | 0.9985 ± 0.0075
200 | TAAATTTTAG | 1.007 ± 0.0026
